Publication PMC9535766, “Structural insights into the assembly and activation of the IL‐27 signaling complex” (EMBO Reports, 2022)

T1: C‐terminal biotinylated mouse GP130 with biotin acceptor peptide (mouse, UniProt Q00560 23-319, biotin on the biotin acceptor peptide (BirA ligase))
T1 construct: GP130, murine, amino acids 23–319; also called biotinylated GP130; source: insect cells (pAcGP67‐A vector), purified; biotinylated with BirA ligase
T1 sequence (looked up): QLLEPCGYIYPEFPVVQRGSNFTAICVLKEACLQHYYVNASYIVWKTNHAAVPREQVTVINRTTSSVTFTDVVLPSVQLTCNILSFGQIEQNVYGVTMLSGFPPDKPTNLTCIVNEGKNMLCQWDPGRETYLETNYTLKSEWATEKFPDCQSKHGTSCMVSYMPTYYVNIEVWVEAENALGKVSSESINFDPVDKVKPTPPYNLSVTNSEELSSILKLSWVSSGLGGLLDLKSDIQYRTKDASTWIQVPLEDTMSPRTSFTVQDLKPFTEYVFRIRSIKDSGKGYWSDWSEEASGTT

T2: C‐terminal biotinylated mouse GP130 with biotin acceptor peptide (mouse, UniProt Q00560 23-319, biotin on the biotin acceptor peptide (BirA ligase))
T2 chain: T1 sequence (looked up)

T3: biotinylated mouse IL‐27Rα (amino acids 28–224) (mouse, UniProt O70394 28-224, N‐terminal biotinylated in vitro using EZ‐Link Sulfo‐NHS‐SS‐Biotin at pH 6.5)
T3 chain: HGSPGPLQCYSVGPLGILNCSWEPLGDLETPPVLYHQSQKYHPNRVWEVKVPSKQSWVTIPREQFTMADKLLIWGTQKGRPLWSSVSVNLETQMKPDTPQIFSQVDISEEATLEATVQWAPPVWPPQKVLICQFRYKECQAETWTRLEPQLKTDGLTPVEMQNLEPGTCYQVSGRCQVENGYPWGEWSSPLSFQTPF

T4: mouse p28 (IL‐27p28), alone (mouse, UniProt Q8K3I6 29-234)
T4 construct: IL-27 p28 subunit, mouse; source: recombinantly produced
T4 sequence (looked up): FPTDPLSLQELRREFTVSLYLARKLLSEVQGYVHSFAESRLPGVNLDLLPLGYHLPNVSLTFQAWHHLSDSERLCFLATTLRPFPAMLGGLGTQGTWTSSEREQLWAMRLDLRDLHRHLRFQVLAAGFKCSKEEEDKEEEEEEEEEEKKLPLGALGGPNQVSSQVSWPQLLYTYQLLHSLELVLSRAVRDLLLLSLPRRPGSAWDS

B1: murine IL‐27, linker‐connected single‐chain variant (p28 + EBI3) (ligand)
chain: GSYTETALVALSQPRVQCHASRYPVAVDCSWTPLQAPNSTRSTSFIATYRLGVATQQQSQPCLQRSPQASRCTIPDVHLFSTVPYMLNVTAVHPGGASSSLLAFVAERIIKPDPPEGVRLRTAGQRLQVLWHPPASWPFPDIFSLKYRLRYRRRGASHFRQVGPIEATTFTLRNSKPHAKYCIQVSAQDLTDYGKPSDWSLPGQVESAPHKPRGGGGSGGGGSVESGENLYFQGFPTDPLSLQELRREFTVSLYLARKLLSEVQGYVHSFAESRLPGVNLDLLPLGYHLPNVSLTFQAWHHLSDSERLCFLATTLRPFPAMLGGLGTQGTWTSSEREQLWAMRLDLRDLHRHLRFQVLAAGFKCSKEEEDKEEEEEEEEEEKKLPLGALGGPNQVSSQVSWPQLLYTYQLLHSLELVLSRAVRDLLLLSLPRRPGSAWDS
B2: biotinylated mouse IL‐27Rα (amino acids 28–224) (receptor, UniProt O70394 28-224, looked up)
chain: T3 chain
modifications: N‐terminal biotinylated in vitro using EZ‐Link Sulfo‐NHS‐SS‐Biotin at pH 6.5
notes: IL-27 receptor alpha, murine, amino acids 28–224; Same construct as m2, chemically biotinylated for capture on the streptavidin chip; also called biotinylated IL‐27Rα; source: Trichoplusia ni (High Five) cells, baculovirus, secreted; purified (Ni-NTA, SEC); biotinylated in vitro

How the values were obtained:
[1] = molecular target: T1, C‐terminal biotinylated mouse GP130 …; assay: SPR; Biacore T100; biotinylated receptor immobilised on SA chip (~100 RU); IL‐27 flowed, 1:3 dilution series from 100 nM, 30 μl/min; 25°C; 10 mM HEPES, 150 mM NaCl, 0.05% TWEEN‐20, pH 7.2, 0.5% BSA; kinetic 1:1 fit; details: both partners purified
[2] = molecular target: B2; assay: as above; details: both partners purified
[3] = molecular target: T2, C‐terminal biotinylated mouse GP130 …; assay: SPR
[4] = molecular target: T3, biotinylated mouse IL‐27Rα (amino acids …); assay: SPR
[5] = molecular target: T4, mouse p28 (IL‐27p28), alone; assay: SPR; Biacore T100; biotinylated receptor immobilised on SA chip (~100 RU); p28 flowed, 1:2 dilution series from 20 μM; 25°C; 10 mM HEPES, 150 mM NaCl, 0.05% TWEEN‐20, pH 7.2, 0.5% BSA; equilibrium analysis; details: both partners purified

Row | Binder | Kd [1] | Kd [2] | koff [3] | koff [4] | Kd [5]
1 | B1 | 2.1 nM | 0.28 nM | 0.02 s⁻¹ | 0.001 s⁻¹ | 
2 | B2 |  |  |  |  | 1700 nM
